± gives the standard deviation of the averaged measurements.
Test system: ATP
Assay: switch fluorescence ratio, 500 uM ATP over buffer (Cy3 cluster intensity, sum of 5 cycles each) (fold (ratio)); higher = stronger signal-on switching upon ATP binding; sequences stand for … in TCGTCGGCAGCGTCAGATGTGTATAAGAGACAGTTTTTTTTTTTTTTTTTTTTTTTTT…TC
Conditions: aptamer strand: ATP DNA aptamer (quencher-CACCTGGGGGAGTATTGCGGAGGAAGG + anchor), 100 nM annealed; ATP concentration: 500 uM
How it was run: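 Clusters with intensities outside 100-1000 RFU were excluded. The remaining Cy3-labelled switching-strand clusters on a modified Illumina MiSeq flow-cell had been annealed to 100 nM quencher-labelled ATP aptamer and imaged in selection buffer, then after 15 min with 500 uM ATP at 22 °C, for five cycles separated by NaOH stripping and re-annealing. The fluorescence ratio, averaged per switch-domain sequence, is each cluster's summed target-cycle Cy3 intensity over its summed buffer-cycle Cy3 intensity.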
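Note: ATP exposure 15 min at 22 °C before imaging.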

| Sequence | switch fluorescence ratio |
| --- | --- |
| GTGGAGGGTG | 1.05 ± 0.035 |
| GTGGAGGTTG | 0.984 ± 0.03 |
| GTGGATAGCT | 1 ± 0.05 |
| GTGGATGCAT | 1.01 ± 0.022 |
| GTGGATGGGA | 0.977 ± 0.015 |
| GTGGATTAGA | 0.9767 ± 0.0056 |
| GTGGATTATC | 1.01 ± 0.036 |
| GTGGATTATT | 0.993 ± 0.05 |
| GTGGCAACGC | 0.98 ± 0.021 |
| GTGGCAGGTA | 1 ± 0.012 |
| GTGGCATTTT | 1.01 ± 0.03 |
| GTGGCTGAGG | 1.004 ± 0.0082 |
| GTGGCTTTAT | 1.01 ± 0.013 |
| GTGGCTTTGT | 1.02 ± 0.029 |
| GTGGGAAGTT | 0.9926 ± 0.0071 |
| GTGGGACACG | 1.01 ± 0.048 |
| GTGGGAGATA | 1.01 ± 0.038 |
| GTGGGATGAC | 1.01 ± 0.024 |
| GTGGGATTAG | 1 ± 0.028 |
| GTGGGATTCG | 1.011 ± 0.0059 |
| GTGGGCCAGG | 1.06 ± 0.094 |
| GTGGGGAAGT | 0.995 ± 0.034 |

| Sequence | switch fluorescence ratio |
| --- | --- |
| GTGGGGACAC | 0.973 ± 0.036 |
| GTGGGGATTA | 1 ± 0.018 |
| GTGGGGATTT | 1.01 ± 0.013 |
| GTGGGGCTGG | 1.008 ± 0.0055 |
| GTGGGGGACG | 0.982 ± 0.021 |
| GTGGGGGCAT | 1 ± 0.041 |
| GTGGGGGCGC | 1.04 ± 0.022 |
| GTGGGGGGCC | 0.966 ± 0.028 |
| GTGGGGGTCG | 0.98 ± 0.075 |
| GTGGGGGTGG | 0.985 ± 0.015 |
| GTGGGGGTTA | 0.996 ± 0.03 |
| GTGGGGGTTT | 1.05 ± 0.14 |
| GTGGGGTCTT | 1 ± 0.019 |
| GTGGGGTGAA | 1.03 ± 0.055 |
| GTGGGGTTTT | 0.983 ± 0.022 |
| GTGGGTAAAG | 0.975 ± 0.01 |
| GTGGGTAGCG | 0.994 ± 0.013 |
| GTGGGTATTT | 0.977 ± 0.023 |
| GTGGGTCGGT | 0.979 ± 0.036 |
| GTGGGTGGTC | 1.02 ± 0.013 |
| GTGGGTGTGG | 1.02 ± 0.022 |
| GTGGGTTACT | 1.02 ± 0.021 |

| Sequence | switch fluorescence ratio |
| --- | --- |
| GTGGGTTAGG | 0.996 ± 0.031 |
| GTGGGTTCAG | 1 ± 0.018 |
| GTGGGTTCCT | 1.013 ± 0.0021 |
| GTGGGTTGTG | 0.978 ± 0.04 |
| GTGGTAACCT | 1.4 ± 0.12 |
| GTGGTACAGG | 1.02 ± 0.068 |
| GTGGTACATA | 0.981 ± 0.022 |
| GTGGTAGGGG | 0.995 ± 0.025 |
| GTGGTAGTTC | 0.983 ± 0.015 |
| GTGGTATTAT | 1.01 ± 0.021 |
| GTGGTATTTT | 0.999 ± 0.035 |
| GTGGTGCTAG | 0.97206 ± 1.9e-05 |
| GTGGTGGGGC | 0.955 ± 0.03 |
| GTGGTGGTTG | 1.01 ± 0.028 |
| GTGGTGTTGT | 0.97 ± 0.037 |
| GTGGTTAAAA | 0.998 ± 0.012 |
| GTGGTTCTTT | 0.989 ± 0.044 |
| GTGGTTGGAG | 0.9865 ± 0.0072 |
| GTGGTTGGCC | 1.011 ± 0.0027 |
| GTGGTTTGTT | 1.01 ± 0.046 |
| GTGGTTTTCG | 1.03 ± 0.062 |
| GTGTAAATGG | 1.01 ± 0.013 |

| Sequence | switch fluorescence ratio |
| --- | --- |
| GTGTAACCTG | 1.01 ± 0.054 |
| GTGTAAGAAC | 1.016 ± 0.0048 |
| GTGTAAGGGT | 0.981 ± 0.018 |
| GTGTAAGGTA | 1.02 ± 0.018 |
| GTGTACGCTG | 0.988 ± 0.027 |
| GTGTAGAGTT | 1.02 ± 0.016 |
| GTGTAGGGTA | 1.01 ± 0.02 |
| GTGTATAGGA | 0.98611 ± 0.00034 |
| GTGTATATGG | 0.995 ± 0.017 |
| GTGTATCGAT | 1.003 ± 0.0081 |
| GTGTATGGGA | 0.967 ± 0.033 |
| GTGTCAAGTA | 0.961 ± 0.016 |
| GTGTCATGGA | 1 ± 0.029 |
| GTGTCCGTGG | 1.003 ± 0.0037 |
| GTGTCCTTAT | 0.998 ± 0.074 |
| GTGTCGC | 0.991 ± 0.047 |
| GTGTCGGATC | 1.06 ± 0.023 |
| GTGTCGGGAA | 0.9838 ± 0.0023 |
| GTGTGAATGT | 1.01 ± 0.021 |

Reference: the supplement of paper PMC10126150
